Measured values reported in publication doi:10.1101/2021.02.05.429362 (bioRxiv, 2021).
Values joined by “and” are separate entries in the source; they are usually repeats but may differ in a detail not shown here. Equal entries are not always repeated. Where two headings read alike, the source gives them in different places. Values belong to the binder of their own block, whether it stands above or below them. Where no end group is shown, it is not given here.

Columns and labels:
[1] = biological target: T1, G3BP1-NTF2 (residues 1-139) (human (by the printed UniProt entry …)); test: ITC
[2] = biological target: T1, G3BP1-NTF2 (residues 1-139); test: ITC; remark: listed apart in the source
G3BP1-NTF2 H31A = G3BP1-NTF2 H31A (human (by the printed UniProt entry …, UniProt Q13283, H31A)); test: ITC
[3] = biological target: T1, G3BP1-NTF2 (residues 1-139); test: ITC; remark: listed apart in the source
[4] = biological target: T1, G3BP1-NTF2 (residues 1-139); test: nanoDSF
[5] = biological target: T1, G3BP1-NTF2 (residues 1-139); test: nanoDSF; remark: listed apart in the source
[6] = biological target: T1, G3BP1-NTF2 (residues 1-139); test: nanoDSF; remark: listed apart in the source

Sequence of G3BP1-NTF2 H31A (human (Q13283 1-139 H31A): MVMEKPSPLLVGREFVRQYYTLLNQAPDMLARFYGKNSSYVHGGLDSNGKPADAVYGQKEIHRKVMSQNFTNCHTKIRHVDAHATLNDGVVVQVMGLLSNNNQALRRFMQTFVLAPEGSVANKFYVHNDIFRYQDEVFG

Binder: {GFP}-RQRVQDLMAQMQGPYNFIQDSMLDFENQTLD (domain or fragment) [GFP-Caprin-1^356-386]
Kd [1]: 1400 nM
dH [2]: -18 kcal/mol and -17 kcal/mol
Kd (G3BP1-NTF2 H31A): 15000 nM
dH (G3BP1-NTF2 H31A): -16 kcal/mol
Kd [3]: 4000 ± 2000 nM

Binder: RQRVQDLMAQMQGPYNFIQDSMLDFENQTLD [Caprin-1^356-386 peptide]
dTm [4]: 4 °C
dTm [5]: 1.3 °C
dTm [6]: 1.5 °C

More lines, now with the values ahead:

Kd [1]: 500 nM
dH [2]: -17 ± 1 kcal/mol
Kd (G3BP1-NTF2 H31A): 3000 nM
dH (G3BP1-NTF2 H31A): -18 kcal/mol
Kd [3]: 1500 ± 500 nM
Binder: MALHSPQYIFGDFSPDEFNQFFVTPRSS (domain or fragment) [GFP-USP10^1-28]

Kd [2]: ~20000 nM
Binder: {GFP}-RQRVQDLMAQMQGPYNFIQDSMADFENQTLD (domain or fragment) [GFP-Caprin-1^356-386 L378A]
